# Patent US11938198B2, “Treatment of heart disease by disruption of the anchoring of PP2A” (University of Miami, priority 2019, dated 2024)
# Experiments:
# [1] = test system: full-length mAKAP mutant with an internal deletion of residues 2053-2073 comprising the PKA binding site (ΔPKA)
# [2] = test system: full-length wildtype mAKAP (GFP-tagged) expressed in HEK293 cells
# full-length wildtype mAKAP (GFP-tagged) expressed in HEK293 cells, sequence (chain, as listed by the source): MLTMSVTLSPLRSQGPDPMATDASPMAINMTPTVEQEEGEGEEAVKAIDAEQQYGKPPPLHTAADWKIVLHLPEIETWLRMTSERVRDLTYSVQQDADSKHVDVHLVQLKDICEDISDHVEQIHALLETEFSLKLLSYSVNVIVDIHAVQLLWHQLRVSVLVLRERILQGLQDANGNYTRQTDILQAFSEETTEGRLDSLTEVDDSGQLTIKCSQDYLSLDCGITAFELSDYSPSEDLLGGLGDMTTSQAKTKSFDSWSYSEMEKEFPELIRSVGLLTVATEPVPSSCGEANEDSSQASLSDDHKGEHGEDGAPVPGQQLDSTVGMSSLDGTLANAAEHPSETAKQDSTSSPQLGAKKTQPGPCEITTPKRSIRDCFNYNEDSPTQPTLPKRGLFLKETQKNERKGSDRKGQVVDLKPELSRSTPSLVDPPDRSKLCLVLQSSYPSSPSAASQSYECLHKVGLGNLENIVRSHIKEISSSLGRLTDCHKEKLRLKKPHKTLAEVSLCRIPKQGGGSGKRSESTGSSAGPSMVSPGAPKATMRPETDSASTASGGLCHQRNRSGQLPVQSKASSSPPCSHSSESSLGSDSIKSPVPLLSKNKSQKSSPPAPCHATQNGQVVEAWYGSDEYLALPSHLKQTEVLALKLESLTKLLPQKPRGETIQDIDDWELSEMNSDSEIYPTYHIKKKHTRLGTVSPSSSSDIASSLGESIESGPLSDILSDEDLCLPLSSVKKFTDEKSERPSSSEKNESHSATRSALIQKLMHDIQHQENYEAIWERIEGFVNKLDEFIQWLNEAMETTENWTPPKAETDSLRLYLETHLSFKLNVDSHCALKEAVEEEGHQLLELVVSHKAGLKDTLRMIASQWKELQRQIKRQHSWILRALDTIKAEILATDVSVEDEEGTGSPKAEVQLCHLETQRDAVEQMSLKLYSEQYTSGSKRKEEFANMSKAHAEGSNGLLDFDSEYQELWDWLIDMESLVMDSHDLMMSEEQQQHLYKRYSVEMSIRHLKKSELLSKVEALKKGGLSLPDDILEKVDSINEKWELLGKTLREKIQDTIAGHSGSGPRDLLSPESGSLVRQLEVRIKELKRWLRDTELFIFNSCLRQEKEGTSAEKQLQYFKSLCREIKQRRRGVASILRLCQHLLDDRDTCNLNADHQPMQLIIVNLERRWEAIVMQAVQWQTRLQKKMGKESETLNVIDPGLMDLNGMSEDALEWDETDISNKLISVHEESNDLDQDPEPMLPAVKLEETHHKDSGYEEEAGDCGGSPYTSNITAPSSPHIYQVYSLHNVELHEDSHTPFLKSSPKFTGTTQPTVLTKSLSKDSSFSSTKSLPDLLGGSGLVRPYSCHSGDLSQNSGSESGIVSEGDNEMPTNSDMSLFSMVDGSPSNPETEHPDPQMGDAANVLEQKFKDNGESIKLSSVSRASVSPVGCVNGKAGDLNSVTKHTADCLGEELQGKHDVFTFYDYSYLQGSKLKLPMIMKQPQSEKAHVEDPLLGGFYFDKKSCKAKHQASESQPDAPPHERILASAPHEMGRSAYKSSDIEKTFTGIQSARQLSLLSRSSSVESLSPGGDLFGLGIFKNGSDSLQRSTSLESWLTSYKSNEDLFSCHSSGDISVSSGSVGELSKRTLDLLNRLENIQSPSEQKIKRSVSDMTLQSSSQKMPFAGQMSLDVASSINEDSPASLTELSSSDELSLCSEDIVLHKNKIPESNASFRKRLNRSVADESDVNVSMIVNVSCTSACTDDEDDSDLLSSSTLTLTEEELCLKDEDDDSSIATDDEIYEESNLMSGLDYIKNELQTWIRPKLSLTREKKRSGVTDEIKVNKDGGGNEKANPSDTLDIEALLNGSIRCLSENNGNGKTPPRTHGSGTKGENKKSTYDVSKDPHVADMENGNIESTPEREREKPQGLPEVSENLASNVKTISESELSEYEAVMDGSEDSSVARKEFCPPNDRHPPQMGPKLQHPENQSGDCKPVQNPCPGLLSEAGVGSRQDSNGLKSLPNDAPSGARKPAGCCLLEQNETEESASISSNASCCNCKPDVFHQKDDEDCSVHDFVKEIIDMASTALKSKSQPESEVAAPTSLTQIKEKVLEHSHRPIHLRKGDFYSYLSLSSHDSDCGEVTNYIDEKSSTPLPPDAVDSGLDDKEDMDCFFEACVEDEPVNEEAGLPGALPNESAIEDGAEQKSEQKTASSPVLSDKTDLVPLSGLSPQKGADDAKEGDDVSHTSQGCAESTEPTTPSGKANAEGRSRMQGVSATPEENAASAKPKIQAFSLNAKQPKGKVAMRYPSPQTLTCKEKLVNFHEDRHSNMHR
# full-length mAKAP mutant with an internal deletion of residues 2053-2073 comprising the PKA binding site (ΔPKA), sequence (chain, as listed by the source mutant): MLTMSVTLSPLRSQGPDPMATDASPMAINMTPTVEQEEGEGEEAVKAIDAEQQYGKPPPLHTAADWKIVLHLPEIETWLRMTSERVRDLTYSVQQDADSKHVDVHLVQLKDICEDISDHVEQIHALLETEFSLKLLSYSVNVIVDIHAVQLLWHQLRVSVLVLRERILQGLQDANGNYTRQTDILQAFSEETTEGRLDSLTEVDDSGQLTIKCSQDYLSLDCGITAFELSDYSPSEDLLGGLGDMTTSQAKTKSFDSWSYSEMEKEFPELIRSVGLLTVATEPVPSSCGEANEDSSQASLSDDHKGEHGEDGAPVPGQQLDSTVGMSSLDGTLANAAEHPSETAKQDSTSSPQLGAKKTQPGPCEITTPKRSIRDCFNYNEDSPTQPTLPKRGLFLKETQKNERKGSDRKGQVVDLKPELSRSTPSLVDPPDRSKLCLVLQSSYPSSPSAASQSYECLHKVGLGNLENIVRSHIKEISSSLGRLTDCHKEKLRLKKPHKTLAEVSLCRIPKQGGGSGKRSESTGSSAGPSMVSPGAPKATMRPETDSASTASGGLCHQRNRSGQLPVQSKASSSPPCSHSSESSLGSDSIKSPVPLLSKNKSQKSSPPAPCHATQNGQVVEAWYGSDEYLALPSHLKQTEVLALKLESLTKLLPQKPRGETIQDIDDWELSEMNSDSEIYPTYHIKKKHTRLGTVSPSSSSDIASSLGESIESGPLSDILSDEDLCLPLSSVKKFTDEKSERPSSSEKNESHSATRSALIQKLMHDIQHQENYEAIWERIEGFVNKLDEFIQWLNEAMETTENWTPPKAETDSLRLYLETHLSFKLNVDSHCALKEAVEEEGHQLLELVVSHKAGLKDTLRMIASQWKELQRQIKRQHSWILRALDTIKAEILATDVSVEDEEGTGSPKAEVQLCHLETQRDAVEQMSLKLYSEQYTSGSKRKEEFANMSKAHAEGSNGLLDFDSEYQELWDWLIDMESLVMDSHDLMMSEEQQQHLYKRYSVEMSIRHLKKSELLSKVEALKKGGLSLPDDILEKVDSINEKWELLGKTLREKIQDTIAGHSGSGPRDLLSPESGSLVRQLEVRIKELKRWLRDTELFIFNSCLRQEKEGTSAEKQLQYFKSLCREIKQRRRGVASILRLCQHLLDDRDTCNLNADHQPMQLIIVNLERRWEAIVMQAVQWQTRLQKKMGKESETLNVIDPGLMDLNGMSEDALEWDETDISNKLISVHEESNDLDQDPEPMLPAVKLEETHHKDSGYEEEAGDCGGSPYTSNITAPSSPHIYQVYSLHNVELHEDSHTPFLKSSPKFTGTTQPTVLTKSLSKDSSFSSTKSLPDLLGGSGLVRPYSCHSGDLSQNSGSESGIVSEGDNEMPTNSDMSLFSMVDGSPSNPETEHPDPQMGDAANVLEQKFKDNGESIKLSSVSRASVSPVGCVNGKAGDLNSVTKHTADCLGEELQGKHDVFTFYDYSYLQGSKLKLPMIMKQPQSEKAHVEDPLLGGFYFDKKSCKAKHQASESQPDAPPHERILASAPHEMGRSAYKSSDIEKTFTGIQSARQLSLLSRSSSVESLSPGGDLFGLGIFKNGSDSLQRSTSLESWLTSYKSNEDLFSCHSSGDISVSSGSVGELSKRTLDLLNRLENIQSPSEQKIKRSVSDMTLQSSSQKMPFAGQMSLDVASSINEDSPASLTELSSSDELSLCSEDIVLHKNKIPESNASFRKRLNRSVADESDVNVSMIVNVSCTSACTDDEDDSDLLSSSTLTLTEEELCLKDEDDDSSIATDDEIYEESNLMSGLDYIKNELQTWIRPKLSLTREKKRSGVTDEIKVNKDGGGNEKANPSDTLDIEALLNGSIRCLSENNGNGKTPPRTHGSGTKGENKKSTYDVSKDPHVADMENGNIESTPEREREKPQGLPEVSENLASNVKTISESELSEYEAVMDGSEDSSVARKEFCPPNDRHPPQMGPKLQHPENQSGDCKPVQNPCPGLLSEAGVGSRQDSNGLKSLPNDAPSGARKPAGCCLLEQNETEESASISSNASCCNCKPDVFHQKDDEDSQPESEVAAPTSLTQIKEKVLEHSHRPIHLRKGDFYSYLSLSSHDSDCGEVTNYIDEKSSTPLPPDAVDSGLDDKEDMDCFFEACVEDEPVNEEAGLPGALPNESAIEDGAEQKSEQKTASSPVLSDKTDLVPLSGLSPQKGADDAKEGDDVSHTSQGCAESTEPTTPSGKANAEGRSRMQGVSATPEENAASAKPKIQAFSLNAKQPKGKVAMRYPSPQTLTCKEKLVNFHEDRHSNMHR
substance,measurement,setting,value
PKA (cAMP-dependent protein kinase) endogenous in HEK293 cells,B56δ Ser-566 phosphorylation in mAKAP immunoprecipitates,[1],B56δ phosphorylation was detected only after FSK/IBMX treatment and only when B56δ was co-expressed with wildtype mAKAP and not the ΔPKA mutant
same,phosphatase activity in mAKAP immunoprecipitates after Fsk/IBMX,[1],no increase was obtained when B56δ was co-expressed with the mAKAP ΔPKA mutant scaffold
same,phosphatase activity in mAKAP immunoprecipitates after Fsk/IBMX,[2],cAMP elevation increased phosphatase activity in mAKAP complexes 1.7 fold
